Experimental findings from PMC9371921, “Strand annealing and motor driven activities of SMARCAL1 and ZRANB3 are stimulated by RAD51 and the paralog complex” (Nucleic Acids Research, 2022) are described below.

One test deals with T1, FLAG-ZRANB3 (human, UniProt Q5FWF4 1-1079).
T1 construct: also called ZRANB3 WT
T1 sequence (looked up): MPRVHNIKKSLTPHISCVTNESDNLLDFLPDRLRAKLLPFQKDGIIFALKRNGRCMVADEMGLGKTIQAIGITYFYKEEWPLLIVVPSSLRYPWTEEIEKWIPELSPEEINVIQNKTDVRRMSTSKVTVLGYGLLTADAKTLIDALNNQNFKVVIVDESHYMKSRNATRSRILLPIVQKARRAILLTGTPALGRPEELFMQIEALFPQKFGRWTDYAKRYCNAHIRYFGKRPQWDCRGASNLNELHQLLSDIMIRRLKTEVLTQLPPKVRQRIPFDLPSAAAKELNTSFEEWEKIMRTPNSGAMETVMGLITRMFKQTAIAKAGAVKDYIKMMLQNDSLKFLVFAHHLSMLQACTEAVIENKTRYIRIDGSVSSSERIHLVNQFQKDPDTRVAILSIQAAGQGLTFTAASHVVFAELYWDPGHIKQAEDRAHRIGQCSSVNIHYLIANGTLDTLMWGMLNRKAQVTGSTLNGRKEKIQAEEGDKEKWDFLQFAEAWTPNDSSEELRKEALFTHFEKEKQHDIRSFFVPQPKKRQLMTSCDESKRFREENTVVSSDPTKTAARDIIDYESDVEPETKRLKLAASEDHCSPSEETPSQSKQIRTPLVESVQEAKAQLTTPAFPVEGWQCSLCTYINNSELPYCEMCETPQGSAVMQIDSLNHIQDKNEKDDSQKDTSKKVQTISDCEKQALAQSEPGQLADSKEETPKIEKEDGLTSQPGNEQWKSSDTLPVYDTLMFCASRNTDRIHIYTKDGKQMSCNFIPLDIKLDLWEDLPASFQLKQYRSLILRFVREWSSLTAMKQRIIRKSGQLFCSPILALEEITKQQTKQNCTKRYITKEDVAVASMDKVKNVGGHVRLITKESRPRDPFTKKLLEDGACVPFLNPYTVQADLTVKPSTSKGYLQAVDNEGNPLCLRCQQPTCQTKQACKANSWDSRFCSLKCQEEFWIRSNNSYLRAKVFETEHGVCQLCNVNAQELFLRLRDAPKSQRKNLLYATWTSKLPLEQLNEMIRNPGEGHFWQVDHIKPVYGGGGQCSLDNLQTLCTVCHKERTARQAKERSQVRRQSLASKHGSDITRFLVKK
The test is described as follows: pull-down; MBP-RAD51 (bait) from bacterial soluble extract bound to amylose resin and washed; purified FLAG-SMARCAL1, FLAG-ZRANB3 or FLAG-BCDX2 (1 μg, prey) in 150 μl IP buffer (25 mM Tris-HCl pH 7.5, 100 mM NaCl, 3 mM EDTA, 0.5 mM DTT, BSA, 10% glycerol), 1 h at 4°C; eluted with maltose; Western blot with anti-MBP and anti-FLAG. The conditions noted are these: both partners purified. Background: Immunoblotting shows a protein as a band on a membrane.

The target of a further test is T2, ZRANB3 F47A (human, UniProt Q5FWF4 1-1079, F47A).
T2 construct: human ZRANB3 with F47A; construct as m2; also called F47A substitution mutant; source: Sf9, expressed and purified similarly as the wild type
T2 sequence (looked up): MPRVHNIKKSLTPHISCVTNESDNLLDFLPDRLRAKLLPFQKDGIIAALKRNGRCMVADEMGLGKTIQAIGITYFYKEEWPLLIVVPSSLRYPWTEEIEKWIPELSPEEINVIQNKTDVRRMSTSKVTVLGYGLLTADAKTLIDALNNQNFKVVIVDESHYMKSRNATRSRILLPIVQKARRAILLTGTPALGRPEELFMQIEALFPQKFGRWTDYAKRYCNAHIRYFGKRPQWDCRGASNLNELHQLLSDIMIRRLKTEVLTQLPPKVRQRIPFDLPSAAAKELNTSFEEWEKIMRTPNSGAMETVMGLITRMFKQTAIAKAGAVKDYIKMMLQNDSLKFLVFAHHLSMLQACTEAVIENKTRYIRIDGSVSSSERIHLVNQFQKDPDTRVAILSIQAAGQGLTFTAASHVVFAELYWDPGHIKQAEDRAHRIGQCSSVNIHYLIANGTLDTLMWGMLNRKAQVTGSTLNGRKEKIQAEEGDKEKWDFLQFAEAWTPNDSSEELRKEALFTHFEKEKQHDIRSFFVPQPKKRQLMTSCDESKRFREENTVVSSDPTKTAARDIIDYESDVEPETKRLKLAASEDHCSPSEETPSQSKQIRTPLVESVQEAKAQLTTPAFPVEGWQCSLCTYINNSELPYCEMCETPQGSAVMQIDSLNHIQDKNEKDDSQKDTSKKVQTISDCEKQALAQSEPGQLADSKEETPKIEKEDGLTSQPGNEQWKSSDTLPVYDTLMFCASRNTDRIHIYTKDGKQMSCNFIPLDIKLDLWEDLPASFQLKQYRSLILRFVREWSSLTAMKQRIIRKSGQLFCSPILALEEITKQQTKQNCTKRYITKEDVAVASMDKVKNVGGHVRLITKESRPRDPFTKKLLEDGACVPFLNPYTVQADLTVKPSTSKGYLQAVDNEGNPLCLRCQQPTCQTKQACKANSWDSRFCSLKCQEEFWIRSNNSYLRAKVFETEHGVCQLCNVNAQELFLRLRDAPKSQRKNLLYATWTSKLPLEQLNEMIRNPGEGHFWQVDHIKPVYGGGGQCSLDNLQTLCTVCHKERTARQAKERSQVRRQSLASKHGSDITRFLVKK
The test is described as follows: pull-down; ZRANB3 F→A variants and RAD51 (Supplementary Figure S4); the methods tell two set-ups (MBP-RAD51 on amylose resin with purified FLAG-ZRANB3; FLAG-ZRANB3 variants from Sf9 soluble extract on anti-FLAG resin with purified RAD51) and the text does not tell which was used for which variant; 100 mM NaCl, 1 h at 4°C. The conditions noted are these: both partners purified.

B1: MBP-RAD51 (natural protein, human, UniProt Q06609 1-339, looked up)
chain: MAMQMQLEANADTSVEEESFGPQPISRLEQCGINANDVKKLEEAGFHTVEAVAYAPKKELINIKGISEAKADKILAEAAKLVPMGFTTATEFHQRRSEIIQITTGSKELDKLLQGGIETGSITEMFGEFRTGKTQICHTLAVTCQLPIDRGGGEGKAMYIDTEGTFRPERLLAVAERYGLSGSDVLDNVAYARAFNTDHQTQLLYQASAMMVESRYALLIVDSATALYRTDYSGRGELSARQMHLARFLRMLLRLADEFGVAVVITNQVVAQVDGAAMFAADPKKPIGGNIIAHASTTRLYLRKGRGETRICKIYDSPCLPEAEAMFAINADGVGDAKD
notes: In the pull-downs the MBP tag was kept; the RAD51 of the DNA annealing assays was the same construct with the MBP cut off by PreScission protease and purified on HiTrap Q; not shown: MBP, N-terminal, kept
Take B1: the binding result in the test with FLAG-ZRANB3 and with ZRANB3 F47A was “binds” each time.
